Data reported in article PMC6435160, “Initiation-specific alleles of the Cdc45 helicase-activating protein” (PLoS ONE, 2019).

Columns and labels:
[1] = biological target: T1, Mcm2-7 replicative DNA helicase, loaded on origin DNA and phosphorylated by DDK (S. cerevisiae, UniProt P29469 1-868; P24279 1-971; P30665 1-933; P29496 1-775; P53091 1-1017; P38132 …); assay: pull-down; CMG formation assay: Mcm2-7 loaded on bead-attached origin DNA (pUC19-ARS1) and treated with DDK; S-CDK, Sld2, Dpb11, Pol ε, GINS, Mcm10, Sld3/7 and 50 nM Cdc45 added, no Pol α-primase; 30 min at 25°C; beads washed with buffer H + 0.3 M KCl, 0.02% NP-40 (salt-stable complexes); proteins released with DNase and detected by immunoblot; amounts relative to wild type; conditions: both partners purified
T1 construct: Mcm2 subunit of Mcm2-7, S. cerevisiae; Mcm3 subunit of Mcm2-7, S. cerevisiae; Mcm4 subunit of Mcm2-7, S. cerevisiae; Mcm5 subunit of Mcm2-7, S. cerevisiae; Mcm6 subunit of Mcm2-7, S. cerevisiae; Mcm7 subunit of Mcm2-7, S. cerevisiae; In the assays the complex was loaded on origin DNA and treated with DDK; also called Mcm2-7 complex; loaded Mcm2-7; source: Mcm2-7/Cdt1 purified as previously …

[2] = biological target: T1, Mcm2-7 replicative DNA helicase, loaded …; assay: pull-down; reconstituted DNA replication assay: Mcm2-7 loaded on bead-attached origin DNA (pARS1-Nco) and treated with DDK; S-CDK, Sld2, Dpb11, Pol α-primase, Pol ε, RPA, GINS, Mcm10, Sld3/7 and 130 nM Cdc45 added; 1 h at 25°C; beads washed with buffer H + 0.3 M K-Glut, 0.02% NP-40; proteins released with DNase and detected by immunoblot; amounts relative to wild type; conditions: both partners purified

Binder | stable CMG complexes, percent of wild-type Cdc45 [1] | percent of wild-type Cdc45 association [2] | binding result [2]
Cdc45-485 (DDRK->AAAA) (natural protein, S. cerevisiae, UniProt Q08032 1-650, looked up, Cdc45, Saccharomyces cerevisiae, clustered alanine mutant; mutants are numbered by the position of the first mutated amino acid; also called Cdc45-ts) MYYGISQFSEAYNKILRNSSSHSSCQLVIFVSCLNIDALCATKMLSLLFKKQLVQSQIVPIFGYSELRRHYSQLDDNINSLLLVGFGGVIDLEAFLEIDPQEYVIDTDEKSGEQSFRRDIYVLDAHRPWNLDNIFGSQIIQCFDDGTVDDTLGEQKEAYYKLLELDEESGDDELSGDENDNNGGDDEATDADEVTDEDEEDEDETISNKRGNSSIGPNDLSKRKQRKKQIHEYEGVLEEYYSQGTTVVNSISAQIYSLLSAIGETNLSNLWLNILGTTSLDIAYAQVYNRLYPLLQDEVKRLTPSSRNSVKTPDTLTLNIQPDYYLFLLRHSSLYDSFYYSNYVNAKLSLWNENGKKRLHKMFARMGIPLSTAQETWLYMDHSIKRELGIIFDKNLDRYGLQDIIRDGFVRTLGYRGSISASEFVEALTALLEVGNSTDKDSVKINNDNNDDTDGEEEEDNSAQKLTNLRKRWVSNFWLSWDALAAAAVELLNRGIQLAQDLQRAIFNTGVAILEKKLIKHLRIYRLCVLQDGPDLDLYRNPLTLLRLGNWLIECCAESEDKQLLPMVLASIDENTDTYLVAGLTPRYPRGLDTIHTKKPILNNFSMAFQQITAETDAKVRIDNFESSIIEIRREDLSPFLEKLTLSGLL | 43 % of wild-type Cdc45 | 27 % of wild-type Cdc45 association | 
GINS complex (Sld5, Psf1, Psf2, Psf3) (complex, S. cerevisiae, Sld5 subunit of GINS, S. cerevisiae; Psf1 subunit of GINS, S. cerevisiae; Psf2 subunit of GINS, S. cerevisiae; expressed as Psf2-3C-6xHis-Flag, tag removed with HRV 3C protease; Psf3 subunit of GINS, S. cerevisiae; not shown: 6xHis, C-terminal, cleaved; Flag, C-terminal, cleaved; copies: + + +) chain 1: MDINIDDILAELDKETTAVDSTKITQGSSSTTHRDANTIVGSSLDLNDKTQIYVSPQQDFSDLMKSWKNERCSPELLPYPHQLMKRLLNRISMQSQLIENISMGFLDMQNASNANPPMPNESKLPLLCMETELERLKFVIRSYIRCRLSKIDKFSLYLRQLNEDENSLISLTDLLSKDEIKYHDTHSLIWLKLVNDSILKYMPEELQAINDTEGSVNMIDEPDWNKFVFIHVNGPPDGKWNEDPLLQENEFGKPCYTVTIPDLKEEVELTIGSIYVMRYEVIRDLLRDDKVALI chain 2: MYGDLGNKLVLEAKRTKQLYARSNQDVNLPMYHEDIIRNILKEVSNLRKNTEYLKEQQQLGMLDDKVAKCQYFVTLLCMERNKRCLLAYQRLRTDILDSMAWNNNGLDLMSSITFSQQDTNNLSHQEQEYLKEYCDLITDLKSGDLVDIDLSGSLVPPSDVFIDVRVLKDAGEIQTEYGVFNLIKDSQFFVRQSDVERLIQQGYLQKI chain 3: MSLPAHLQQTFSPEEIQFIVENEPIKIFPRITTRQKIRGDDRGTGNHTRWQLITTDDKALNNMVAMRSTEVVLWIALLLKQQSKCSIVAPQWLTTKELDRKIQYEKTHPDRFSELPWNWLVLARILFNKAKDDFHDPIHELRGKIQDLREIRQIKVLKGLKYLNESHLQLDNLSLLEINELRPFITEIMDKLREIHTASLTAGTENDEEEFNI chain 4: MGYYDIDDVLADGTEFPCKFQYDIPGLGYLENNPGRPITKNTKLSLPLWLARILAIVGGDEALVDEEPVPFVELLPPDMFSTKVMNAIKTDPVALDLHSINSHFFSLAIKWIMLFSEKELANVVSELLLQRAQELNHHASSLSIDLNADSTGKNSANTNIATSTFLLKLEEMEKEIYKKSHESYKDTKRWMFKK |  |  | binds

Further lines, results first:

stable CMG complexes, percent of wild-type Cdc45 [1] | percent of wild-type Cdc45 association [2] | binding result [2] | Binder
67 % of wild-type Cdc45 |  |  | Cdc45-124 (DAH->AAA) (natural protein, S. cerevisiae, UniProt Q08032 1-650, looked up, Cdc45, Saccharomyces cerevisiae, clustered alanine mutant; mutants are numbered by the position of the first mutated amino acid; also called Cdc45-ts) MYYGISQFSEAYNKILRNSSSHSSCQLVIFVSCLNIDALCATKMLSLLFKKQLVQSQIVPIFGYSELRRHYSQLDDNINSLLLVGFGGVIDLEAFLEIDPQEYVIDTDEKSGEQSFRRDIYVLAAARPWNLDNIFGSQIIQCFDDGTVDDTLGEQKEAYYKLLELDEESGDDELSGDENDNNGGDDEATDADEVTDEDEEDEDETISNKRGNSSIGPNDLSKRKQRKKQIHEYEGVLEEYYSQGTTVVNSISAQIYSLLSAIGETNLSNLWLNILGTTSLDIAYAQVYNRLYPLLQDEVKRLTPSSRNSVKTPDTLTLNIQPDYYLFLLRHSSLYDSFYYSNYVNAKLSLWNENGKKRLHKMFARMGIPLSTAQETWLYMDHSIKRELGIIFDKNLDRYGLQDIIRDGFVRTLGYRGSISASEFVEALTALLEVGNSTDKDSVKINNDNNDDTDGEEEEDNSAQKLTNLRKRWVSNFWLSWDALDDRKVELLNRGIQLAQDLQRAIFNTGVAILEKKLIKHLRIYRLCVLQDGPDLDLYRNPLTLLRLGNWLIECCAESEDKQLLPMVLASIDENTDTYLVAGLTPRYPRGLDTIHTKKPILNNFSMAFQQITAETDAKVRIDNFESSIIEIRREDLSPFLEKLTLSGLL
55 % of wild-type Cdc45 | 20 % of wild-type Cdc45 association |  | Cdc45-238 (EEY->AAA) (natural protein, S. cerevisiae, UniProt Q08032 1-650, looked up, Cdc45, Saccharomyces cerevisiae, clustered alanine mutant; mutants are numbered by the position of the first mutated amino acid; also called Cdc45-ts) MYYGISQFSEAYNKILRNSSSHSSCQLVIFVSCLNIDALCATKMLSLLFKKQLVQSQIVPIFGYSELRRHYSQLDDNINSLLLVGFGGVIDLEAFLEIDPQEYVIDTDEKSGEQSFRRDIYVLDAHRPWNLDNIFGSQIIQCFDDGTVDDTLGEQKEAYYKLLELDEESGDDELSGDENDNNGGDDEATDADEVTDEDEEDEDETISNKRGNSSIGPNDLSKRKQRKKQIHEYEGVLAAAYSQGTTVVNSISAQIYSLLSAIGETNLSNLWLNILGTTSLDIAYAQVYNRLYPLLQDEVKRLTPSSRNSVKTPDTLTLNIQPDYYLFLLRHSSLYDSFYYSNYVNAKLSLWNENGKKRLHKMFARMGIPLSTAQETWLYMDHSIKRELGIIFDKNLDRYGLQDIIRDGFVRTLGYRGSISASEFVEALTALLEVGNSTDKDSVKINNDNNDDTDGEEEEDNSAQKLTNLRKRWVSNFWLSWDALDDRKVELLNRGIQLAQDLQRAIFNTGVAILEKKLIKHLRIYRLCVLQDGPDLDLYRNPLTLLRLGNWLIECCAESEDKQLLPMVLASIDENTDTYLVAGLTPRYPRGLDTIHTKKPILNNFSMAFQQITAETDAKVRIDNFESSIIEIRREDLSPFLEKLTLSGLL
